Experimental data as given in paper PMC2877716, “Genome-Wide Identification of Calcium-Response Factor (CaRF) Binding Sites Predicts a Role in Regulation of Neuronal Signaling Pathways”.

What was measured:
[1] = target: T1, recombinant CaRF (Figs 5 and 6) (UniProt Q8VHI4 1-689); assay: EMSA; EMSA: 2 uL TNT or purified CaRF with 50 fmol 32P probe, 6% non-denaturing gel; competitors 50-150-fold excess, 30 min pre-incubation; buffer, pH and temperature not stated (cited ref 14); details: protein: recombinant; label: 32P when probe; blunt
T1 sequence: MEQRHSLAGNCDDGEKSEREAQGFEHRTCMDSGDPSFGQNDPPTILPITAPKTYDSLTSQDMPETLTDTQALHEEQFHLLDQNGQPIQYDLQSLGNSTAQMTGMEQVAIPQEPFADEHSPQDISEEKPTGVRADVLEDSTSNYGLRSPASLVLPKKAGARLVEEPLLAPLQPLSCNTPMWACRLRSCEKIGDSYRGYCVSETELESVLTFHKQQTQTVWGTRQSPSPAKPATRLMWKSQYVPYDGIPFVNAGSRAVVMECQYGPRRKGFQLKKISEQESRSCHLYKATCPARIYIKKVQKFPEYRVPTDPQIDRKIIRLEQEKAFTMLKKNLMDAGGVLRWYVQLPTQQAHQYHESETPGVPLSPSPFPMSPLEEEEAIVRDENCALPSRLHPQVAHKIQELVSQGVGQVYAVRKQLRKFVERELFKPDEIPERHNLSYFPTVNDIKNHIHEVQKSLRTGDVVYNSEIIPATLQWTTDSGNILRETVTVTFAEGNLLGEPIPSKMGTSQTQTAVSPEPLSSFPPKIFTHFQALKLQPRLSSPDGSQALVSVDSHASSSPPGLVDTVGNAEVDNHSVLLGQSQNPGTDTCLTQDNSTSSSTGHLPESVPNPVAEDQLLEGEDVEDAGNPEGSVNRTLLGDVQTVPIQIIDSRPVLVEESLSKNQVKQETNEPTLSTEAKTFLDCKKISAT

[2] = target: T2, CaRF (TNT) (Homo sapiens, UniProt Q8N187 1-725); assay: competition; CaRE1 probe, 50-fold excess; EMSA: 2 uL TNT or purified CaRF with 50 fmol 32P probe, 6% non-denaturing gel; competitors 50-150-fold excess, 30 min pre-incubation; buffer, pH and temperature not stated (cited ref 14); details: protein: ivt; tags: N-terminal FLAG (DYKDDDDK); blunt
T2 sequence: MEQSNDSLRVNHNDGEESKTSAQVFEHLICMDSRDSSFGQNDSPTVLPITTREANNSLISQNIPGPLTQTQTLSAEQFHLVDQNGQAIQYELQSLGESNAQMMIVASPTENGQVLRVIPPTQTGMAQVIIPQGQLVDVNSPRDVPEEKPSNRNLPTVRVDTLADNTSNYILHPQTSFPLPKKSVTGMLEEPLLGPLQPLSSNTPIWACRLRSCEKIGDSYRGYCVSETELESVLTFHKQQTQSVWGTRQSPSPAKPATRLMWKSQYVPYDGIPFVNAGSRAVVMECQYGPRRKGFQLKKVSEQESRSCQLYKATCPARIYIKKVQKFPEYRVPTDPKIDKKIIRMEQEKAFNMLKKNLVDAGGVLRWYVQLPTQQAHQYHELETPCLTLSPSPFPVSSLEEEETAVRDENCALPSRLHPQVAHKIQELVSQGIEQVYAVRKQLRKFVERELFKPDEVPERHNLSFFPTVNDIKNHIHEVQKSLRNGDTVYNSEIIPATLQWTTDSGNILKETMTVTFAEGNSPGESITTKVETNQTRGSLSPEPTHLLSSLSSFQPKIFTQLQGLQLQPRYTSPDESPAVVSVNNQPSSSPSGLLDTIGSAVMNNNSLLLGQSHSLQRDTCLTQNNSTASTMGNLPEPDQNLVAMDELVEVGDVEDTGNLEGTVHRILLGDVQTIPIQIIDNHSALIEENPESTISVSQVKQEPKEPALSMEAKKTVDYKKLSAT

[3] = target: T3, CaRF (E. coli) (Mus musculus (Methods); human per Fig 2 …, UniProt Q8VHI4 1-689); assay: as above; details: protein: recombinant; blunt
T3 sequence: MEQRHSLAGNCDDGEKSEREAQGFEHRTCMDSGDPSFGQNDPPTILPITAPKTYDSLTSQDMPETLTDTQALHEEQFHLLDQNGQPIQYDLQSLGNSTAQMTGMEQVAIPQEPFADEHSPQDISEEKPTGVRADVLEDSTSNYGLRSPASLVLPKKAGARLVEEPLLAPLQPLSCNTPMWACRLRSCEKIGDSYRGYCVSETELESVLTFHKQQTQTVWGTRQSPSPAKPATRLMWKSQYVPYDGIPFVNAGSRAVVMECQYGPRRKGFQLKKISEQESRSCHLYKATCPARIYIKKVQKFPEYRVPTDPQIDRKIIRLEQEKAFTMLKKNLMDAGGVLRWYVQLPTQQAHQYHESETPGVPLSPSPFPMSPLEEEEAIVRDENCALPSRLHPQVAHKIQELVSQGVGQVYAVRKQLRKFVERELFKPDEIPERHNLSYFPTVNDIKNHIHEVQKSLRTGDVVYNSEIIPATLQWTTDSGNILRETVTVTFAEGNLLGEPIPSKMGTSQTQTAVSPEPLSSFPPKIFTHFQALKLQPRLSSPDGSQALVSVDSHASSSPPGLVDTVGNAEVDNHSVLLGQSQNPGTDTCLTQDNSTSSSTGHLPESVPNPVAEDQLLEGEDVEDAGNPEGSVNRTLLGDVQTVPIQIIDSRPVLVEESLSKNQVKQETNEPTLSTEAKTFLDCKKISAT

[4] = target: T1, recombinant CaRF (Figs 5 and 6); assay: competition; camCaRE probe, 50-100-fold excess; EMSA: 2 uL TNT or purified CaRF with 50 fmol 32P probe, 6% non-denaturing gel; competitors 50-150-fold excess, 30 min pre-incubation; buffer, pH and temperature not stated (cited ref 14); details: protein: recombinant; blunt
[5] = target: T1, recombinant CaRF (Figs 5 and 6); assay: competition; cCaRE probe, 100-fold excess; higher affinity than CaRF1; EMSA: 2 uL TNT or purified CaRF with 50 fmol 32P probe, 6% non-denaturing gel; competitors 50-150-fold excess, 30 min pre-incubation; buffer, pH and temperature not stated (cited ref 14); details: protein: recombinant; blunt
[6] = target: T2, CaRF (TNT); assay: EMSA; EMSA: 2 uL TNT or purified CaRF with 50 fmol 32P probe, 6% non-denaturing gel; competitors 50-150-fold excess, 30 min pre-incubation; buffer, pH and temperature not stated (cited ref 14); details: protein: ivt; tags: N-terminal FLAG (DYKDDDDK); label: 32P when probe; blunt
[7] = target: T3, CaRF (E. coli); assay: as above; details: protein: recombinant; label: 32P when probe; blunt

B1: camCaRE (dsDNA)
DNA 1: TCAAAGCGAGGCAGA
DNA 2: TCTGCCTCGCTTTGA
B1: binds [1].

B2: mCaRE1 (mCaRE) (dsDNA)
DNA 1: GAGTGTCTTCCGCCAGGCAGAGGAGG
DNA 2: CCTCCTCTGCCTGGCGGAAGACACTC
B2: no binding [2]; no binding [3]; no binding [4].

B3: CaRF2 (dsDNA)
DNA 1: TGAGTAGTCTCGTTTTGAATTTTCTCC
DNA 2: GGAGAAAATTCAAAACGAGACTACTCA
B3: binds [5].

B4: CaRE1 (dsDNA)
DNA 1: GAGTGTCTATTTCGAGGCAGAGGAGG
DNA 2: CCTCCTCTGCCTCGAAATAGACACTC
B4: binds [6]; binds [7].
